One may read the EC50 as the midpoint of the concentration-response curve. Higher therefore signals lower potency in that assay.

The values that follow come from patent US20170334973A1.

A value given as a limit tells only on which side of the number the result lay.

Assay [1] deals with BDBV GP (Bundibugyo virus (BDBV)). In words: ELISA, purified mAb. (An ELISA detects its analyte on a solid surface through an enzyme-linked reagent.)
Assay [2] shares this target. In words: GP ELISA, purified mAb.

FVM09 (antibody), sequence (VH): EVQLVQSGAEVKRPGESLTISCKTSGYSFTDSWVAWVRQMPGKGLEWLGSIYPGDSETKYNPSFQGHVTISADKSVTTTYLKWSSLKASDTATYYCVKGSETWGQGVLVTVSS
FVM09 (antibody), sequence (V domain): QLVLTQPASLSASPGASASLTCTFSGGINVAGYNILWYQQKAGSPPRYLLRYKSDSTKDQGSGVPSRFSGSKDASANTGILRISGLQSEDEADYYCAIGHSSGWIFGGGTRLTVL

On to FVM09 (antibody), for which the EC50 in assay [1] was below 0.015 µg/mL; in assay [2], 0.02 µg/mL.
